{"source": "paper PMC10038052", "assay_in_all_cases": "fluorescence polarization", "key": {"SRSF1 RRM1+2 [1]": {"biological_target": "T1, SRSF1 RRM1+2 (UniProt Q07955 1-195)", "T1 sequence (Q07955 1-195)": "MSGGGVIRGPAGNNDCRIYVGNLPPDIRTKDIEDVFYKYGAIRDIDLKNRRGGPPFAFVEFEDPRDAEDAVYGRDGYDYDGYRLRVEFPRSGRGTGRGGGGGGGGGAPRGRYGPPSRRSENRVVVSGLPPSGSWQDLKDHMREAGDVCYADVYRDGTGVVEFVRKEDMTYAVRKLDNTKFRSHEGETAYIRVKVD"}, "SRSF1 RRM1+2 [2]": {"biological_target": "T1, SRSF1 RRM1+2", "remark": "listed apart in the source"}, "MBP-hnRNP A2/B1 (1-251) [3]": {"biological_target": "T2, MBP-hnRNP A2/B1 (1-251) (UniProt P22626 1-251)", "T2 sequence (P22626 1-251)": "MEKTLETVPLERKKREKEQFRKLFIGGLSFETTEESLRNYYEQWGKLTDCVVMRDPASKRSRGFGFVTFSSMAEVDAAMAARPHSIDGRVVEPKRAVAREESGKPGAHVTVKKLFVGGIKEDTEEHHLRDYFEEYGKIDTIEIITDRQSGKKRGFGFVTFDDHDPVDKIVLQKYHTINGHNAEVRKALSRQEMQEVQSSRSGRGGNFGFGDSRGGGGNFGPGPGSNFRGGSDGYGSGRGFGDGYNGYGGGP"}, "MBP-hnRNP A2/B1 (1-251) [4]": {"biological_target": "T2, MBP-hnRNP A2/B1 (1-251)", "remark": "listed apart in the source"}, "MBP-hnRNP A2/B1 (1-251) [5]": {"biological_target": "T2, MBP-hnRNP A2/B1 (1-251)", "remark": "listed apart in the source"}}, "note": "Where two headings read alike, the source gives them in different places.", "data": [{"binder": "AGAAGAACAGAAGAAC (ssRNA)", "note": "[FAM-S2 (A3 2n)]", "values": [{"measurement": "Kd", "setting": "SRSF1 RRM1+2 [1]", "result": "0.0561 ± 0.0175", "unit": "µM"}]}, {"binder": "AGAAGAACAGAAGAACAGAAGAAC (ssRNA)", "note": "[FAM-S3 (A3 3n)]", "values": [{"measurement": "Kd", "setting": "SRSF1 RRM1+2 [2]", "result": "0.0425 ± 0.0339", "unit": "µM"}]}, {"binder": "AAGGACUAGC (ssRNA)", "note": "[FAM-H1 (10 mer 1n)]", "values": [{"measurement": "Kd", "setting": "MBP-hnRNP A2/B1 (1-251) [3]", "result": "0.0517 ± 0.009", "unit": "µM"}]}, {"binder": "AAGGACUAGCAAGGACUAGC (ssRNA)", "note": "[FAM-H2 (10 mer 2n)]", "values": [{"measurement": "Kd", "setting": "MBP-hnRNP A2/B1 (1-251) [4]", "result": "0.135 ± 0.009", "unit": "µM"}]}, {"binder": "AAGGACUAGCAAGGACUAGCAAGGACUAGC (ssRNA)", "note": "[FAM-H3 (10 mer 3n)]", "values": [{"measurement": "Kd", "setting": "MBP-hnRNP A2/B1 (1-251) [5]", "result": "0.024 ± 0.0081", "unit": "µM"}]}]}
